Test results reported in patent US20190218277A1 (Chugai, published 2019).
Residue numbers refer to the chain shown, from its start.

B1: DG_3CH1049-SG182/3CL668-SK1 (antibody, V domains shown)
VH: QVQLVQSGAEVKKPGASVKVSCKASGYTFTSYYMHWVRQAPGQGLEWMGVINPRGGSRRSAQKFQGRVTMTRDTSTSTVYMELSSLRSEDTAVYYCARGGEALFYDSYTTPFDGGSWWFDPWGQGSLVTVSS
VL: DIQLTQSPSSLSASVGDRVTITCQASQDIRKYLNWYQQKPGKAPKLLIYDASNLKTGVPSRFSGSGSGTDFTLTISSLQPEDVATYYCQQFEDLPITFGQGTRLQIKR
B2: DG_3CH1046-SG182/3CL668-SK1 (antibody, V domains shown)
VH: B1 VH with E101R
VL: B1 VL
B3: DG_3CH1049-SG182/3CL633-SK1 (antibody, V domains shown)
VH: B1 VH
VL: B1 VL with E92D
B4: DG_3CH1046-SG182/3CL666-SK1 (antibody, V domains shown)
VH: B1 VH with E101R
VL: B1 VL with D28E, E92D
B5: DG_3CH1049-SG182/3CL666-SK1 (antibody, V domains shown)
VH: B1 VH
VL: B1 VL with D28E, E92D
B6: DG_3CH1000-SG1106/3CL012-SK1 (antibody)
heavy: QVQLVQSGPDVEKPGASVKVSCKASGYTFTSYYMHWVRQAPGQGLEWMGVINPRGGSRRSAQKFQGRITMTRDTSTSTVYMELSSLRSEDTAVYYCARGGRALFYDSYTTPFDGGSWWFDPWGQGSLVTVSSASTKGPSVFPLAPSSKSTSGGTAALGCLVKDYFPEPVTVSWNSGALTSGVHTFPAVLQSSGLYSLSSVVTVPSSSLGTQTYICNVNHKPSNTKVDKRVEPKSCDKTHTCPPCPAPEAAGGPSVFLFPPKPKDTLMISRTPEVTCVVVDVSHEDPEVKFNWYVDGVEVHNAKTKPREEQYNSTYRVVSVLTVLHQDWLNGKEYKCKVSNAALPAPISKTISKAKGQPREPQVYTLPPSREEMTKNQVSLTCLVKGFYPSDIAVEWESNGQPENNYKTTPPVLDSDGSFFLYSKLTVDKSRWQQGNVFSCSVLHEALHAHYTRKELSLSP
light: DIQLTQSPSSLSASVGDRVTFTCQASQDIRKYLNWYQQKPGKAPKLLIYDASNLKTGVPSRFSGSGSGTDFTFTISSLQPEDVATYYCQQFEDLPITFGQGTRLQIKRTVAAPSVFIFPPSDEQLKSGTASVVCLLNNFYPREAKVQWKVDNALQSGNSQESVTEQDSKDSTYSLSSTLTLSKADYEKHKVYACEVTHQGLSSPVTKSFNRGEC
B7: DG_3CH1000-SG1106/3CL119-SK1 (antibody)
heavy: B6 heavy
light: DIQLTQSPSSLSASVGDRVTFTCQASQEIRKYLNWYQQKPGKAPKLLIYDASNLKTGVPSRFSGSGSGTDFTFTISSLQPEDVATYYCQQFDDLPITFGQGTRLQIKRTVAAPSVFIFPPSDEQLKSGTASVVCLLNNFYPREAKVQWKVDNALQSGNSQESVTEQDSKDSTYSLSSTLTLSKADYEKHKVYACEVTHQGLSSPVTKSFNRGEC
B8: DG_3CH1047-SG1106/3CL012-SK1 (antibody)
heavy: B6 heavy with R101E
light: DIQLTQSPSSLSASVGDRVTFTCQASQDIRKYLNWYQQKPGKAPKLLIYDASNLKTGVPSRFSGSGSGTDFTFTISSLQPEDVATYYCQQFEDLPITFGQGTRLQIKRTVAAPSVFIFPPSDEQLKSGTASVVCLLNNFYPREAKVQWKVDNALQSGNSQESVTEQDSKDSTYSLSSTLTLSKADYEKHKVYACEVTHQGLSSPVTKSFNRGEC
B9: DG_3CH1047-SG1106/3CL119-SK1 (antibody)
heavy: B6 heavy with R101E
light: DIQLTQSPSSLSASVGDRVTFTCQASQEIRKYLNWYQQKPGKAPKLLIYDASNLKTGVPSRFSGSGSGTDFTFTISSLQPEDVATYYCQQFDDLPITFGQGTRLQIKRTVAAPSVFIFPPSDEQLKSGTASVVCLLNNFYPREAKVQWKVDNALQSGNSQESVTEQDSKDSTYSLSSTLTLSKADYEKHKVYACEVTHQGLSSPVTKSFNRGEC
B10: DG_3CH953-SG1106/3CL119-SK1 (antibody)
heavy: B6 heavy with Y32N, M34I
light: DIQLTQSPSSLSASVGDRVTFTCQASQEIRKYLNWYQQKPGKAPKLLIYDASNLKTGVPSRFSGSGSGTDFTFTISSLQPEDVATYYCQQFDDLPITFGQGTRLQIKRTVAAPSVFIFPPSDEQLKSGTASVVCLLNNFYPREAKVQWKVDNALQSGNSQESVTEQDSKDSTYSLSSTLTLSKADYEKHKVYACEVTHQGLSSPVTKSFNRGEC

target: T1, Recombinant soluble E protein (0.8E-His) from DENV-2 (DENV-2, UniProt P14340 281-675); experiment: SPR, Biacore T200
T1 construct: also called DENV-2 E protein; DV2

Row | Binder | binding result
1 | B1 | binds
2 | B2 | binds
3 | B3 | binds
4 | B4 | binds
5 | B5 | binds
6 | B6 | binds
7 | B7 | binds
8 | B8 | binds
9 | B9 | binds
10 | B10 | binds

target: T2, Recombinant soluble E protein (0.8E-His) from DENV-4 (DENV-4, UniProt P09866 280-674); experiment: SPR, Biacore T200
T2 construct: also called DENV-4 E protein; DV4

Row | Binder | binding result
11 | B1 | binds
12 | B2 | binds
13 | B3 | binds
14 | B4 | binds
15 | B5 | binds
16 | B6 | binds
17 | B7 | binds
18 | B8 | binds
19 | B9 | binds
20 | B10 | binds

target: T3, Recombinant soluble E protein (0.8E-His) from DENV-3 (DENV-3, UniProt P27915 281-673); experiment: not given
T3 construct: also called DENV-3 E protein; DV3

Row | Binder | Kd [nM]
21 | B1 | 0.00155
22 | B2 | 0.000559
23 | B3 | 0.0041
24 | B4 | 0.00047
25 | B5 | 0.00295
26 | B6 | 0.000101
27 | B7 | 0.00182
28 | B8 | 0.00236
29 | B9 | 0.00436
30 | B10 | 0.00217

target: T4, Recombinant soluble E protein (0.8E-His) from DENV-1 (DENV-1, UniProt P27909 281-675); experiment: not given
T4 construct: also called DENV-1 E protein; DV1

Row | Binder | Kd [nM]
31 | B1 | 1.7
32 | B2 | 1.56
33 | B3 | 1.73
34 | B4 | 1.52
35 | B5 | 1.72
36 | B6 | 1.91
37 | B7 | 1.91
38 | B8 | 2.18
39 | B9 | 2.29
40 | B10 | 1.96
